Substrate: N[C@@H](Cc1ccc(O)cc1)C(=O)O
Assay: purified protein
Settings: amino acid activation, ATP, no tRNA, 37°C, near-cognate amino acid

B1: M. mobile PheRS (MmPheRS) (Mycoplasma mobile 163K) (protein)
chain: MKKNLTNLRIETLEDLKIAKSNFLNNDLELKQLMNDLKLASKEQKASIGQKINFYKQEIEQFFLTKKEEIEKKEVLKKIQDEFIDVFEEVNFSSSLHPLTLIENRFRTWFLNNGYYETEGSEITTDKINFELLNIPKDHPSRDMQDSLYLEKEQNGDQLLLRTHNTGFSIIELIKNKNKAFSAFSIGKVYRNDEDDNTHSHQFSQVDVIVAGKYNFPNLMWLLKSLLSYVFEEEVKIRLRPSYFPFTEPSCEVDVFYKNKWIEVLGSGIIHENVMKAAGYTNDMNALAWGIGIERIAMIKYGIDNIREFYKNDIRFLKQFNLEIEKLEV
- Km: 3.9 ± 0.54 mM
- kcat: 8 s⁻¹
- kcat/Km: 2100 M⁻¹ s⁻¹

Source: article PMC3553970
